Data on 20 sequences can be found in the DeepSol protein solubility set.

The data set is described as follows: soluble on expression in E. coli; label from the status in PepcDB or PDB records.
As for “MVTITLYMNNNIEYISKIKKGEETSFRHFVNSYSKDLFYYAQCFVRSKETAEEVVSDVFLDVWRHREEIDEIKNIKAWLLTLTHNKAISYLRKAENSSEIASWEEIDDFQIIGNLQTPDEEMISKEEIAQINSLIQTLPPKCKVVFALAKIERLPYKEIADMLNISVKTINVHVAKALEIISNGLKK”, the “soluble on expression in E. coli” value is “not soluble”.

With “MADFDNLFDAAIARADETIRGYMGTSATITSGEQSGAVIRGVFDDPENISYAGQGVRVEGSSPSLFVRTDEVRQLRRGDTLTIGEENFWVDRVSPDDGGSCHLWLGRGVPPAVNRRR”, the “soluble on expression in E. coli” value was “soluble”.

“MSLREIVWVHSQRIAPYKTLILNELRYYPLELDPTPFNALVFTSKNAVFSLLETLNNSPKLKTLQNIPAYALSEPTAKTLQDHHFKVAFIGKKAHGKEFAQEILPLLKGKSVLYLRAKEIASSLDTILLEHGIDFKQAVVYENKLKHLTLSEQNALKPKEKSVLIFTAISHAKAFLHYFEFLENYTAISIGNTTALYLQEQGIPSYIAKKPSLEACLELALNLKSEGHHHHHH”: the “soluble on expression in E. coli” value is reported as “soluble”.

On to “SSRGSGILPDEFMFAEFKRQCLSTENWVNKYDKNDMEVWVEQAPLSASINNKGNYSKVHKIRCQINIKDVSAATMYDVLHDGQYRKTWDPTMLESFDIARLAHNADVGYYSWICPKPLKNRDVVTLRSWQASENEYVIINFSVKHPKYPPRKDLVRAVSLMTGYLIKPTGPQSCTFTYLSQADPKGSLPKWVVNKASQVLAPKVLRSAHKAGQNYPAWKAANSPDHKPWLYPIQSELAMMDPAELSIQRGDSLENVDESSTRDAQENEDSS”, for which the “soluble on expression in E. coli” value was “soluble”.

In the case of “MSSSHLAERHAFSDLSLLSEALAQSVTVTLRNAIERYGKASLVVPGGHTPVVYLPRLAQMDLPWQQVFITLSDERWVEPTSEQSNERLVREHFLQHMQQQPHFIALKTGHIHPDQAITDIDARLAELPQPFSLVILGLGEDGHIASLFPGMALNPDTTSLCQTATPPAAPSLRISLSLHALINSDRIILVITGKEKRQLIDRLIESPDQNIPFVRLMQFKPVELFETD”, the “soluble on expression in E. coli” value was “not soluble”.

As for “MGSDKIHHHHHHMSELNNQLWASADILRGKMDASEYKNYLLGLVFYKYLSDQELRAVYEEEQGKVAEYPSRDEQFSGLLDWYNDDAAGIREIISKKLGYFIEPDSLFYTFRKKAGEYELHISDIQNAFIELGRQGEHFAGLFDDVDLASTKLGANAQQRNVTITEVIKALDEIDLFGHDGDVIGDAYEYLIGQFAAGAGKKAGEFYTPQAVSKIISEIVAIGQEETAPFHIYDPTMGSGSLMLNIRRFVKNPGQVHYHGQELNTTTYNLARMNLILHNVEQSQMRLRNGDTLDEDWPTDEPYLFNAVVMNPPYSANWSADGKFLSDPRFEQYGKLAPKSKADFSFLLHGFYHLNEKGTMGIVLPHGVLFRGASEGVIRKTLLDMGAIEAVIGLPANIFYGTSIPTVVLILKKNRAKRDVLFIDASKAFEKQKNQNCIRSQDIRKIVDTYKKRSSSPQYAHLADYDEIVRNDYNLNIPRYVDTFEEEAPIDIVALSKEITDLNLQIKQREAEFLGMLSQLAITDETKELIEATKGIFM”, the “soluble on expression in E. coli” value is “not soluble”.

For the sequence “MSLRIKLLLRFKPPFLIPYNYPRYLYSFLLRAIELADKEVAGRIHNNKRDIKFVASKFMPIGSTKRLEQGLLVESGTVELYVGSTEDIILESLVRGLGQGVGMLHVRGQRLLSYEAELEEIPKHLSGKRFKTLSPVSVYHNNPPNGFRQWDLSPVGPPNSPFENEPKVWKELLFENLKSKYMMVYGEPYEGSFDIRVLTKKPKSRRLLVKIDERTGKPIYARVWEFDFKMWGEEELLRVAYELGIGMRNPHGFGMVEVIEGHHHHHH”, the “soluble on expression in E. coli” value is “soluble”.

Consider “MGSDKIHHHHHHMNERRLLLTGGWILSMDPAVGDLRQGDILIEGDRIAAVAPRIEAPEAQRIDAAGMIVLPGFVDTHRHTWQSCVRHRYADIDPQIYFAEMLGATGAAFRPDDVYIGTLLGAVSALDSGITTMLDWSHVQNSPEHADAAVLGLRDAGIRGIFAHGWPLVEGASWMFDSQRGHPEDIRRLRERYFSSDDQLLTLAMAARGPEMACREVWLRDLRLARELGIRSSIHMGAYARNGTARGIAQMHEAGVLGDDLTFVHCCCSGEDEIAMMADAGVSASLGVHCELNAQGIGDLPLDRMLAVGIRPSLSGDTETKCSGDMFTQMRHAFAYYRSWMGGNHSRVANAPATLSMRDVLEFATVAGARANGLDHKVGSLTPGKQADIVMIRGDDLNLAPVSDAVGAVVLAAHPGNVDTVFVAGRTVKRHGRMTGVDVDMLRHRAAASQHYVLGLR”, for which the “soluble on expression in E. coli” value is reported as “not soluble”.

“MRELKVVGLDADGKNIICQGAIPSEQFKLPVDDRLRAALRDDSVQPEQAQLDIEVTNVLSPKEIQARIRAGASVEQVAAASGSDIARIRRFAHPVLLERSRAAELATAAHPVLADGPAVLTMQETVAAALVARGLNPDSLTWDAWRNEDSRWTVQLAWKAGRSDNLAHFRFTPGAHGGTATAIDDTAHELINPTFNRPLRPLAPVAHLDFDEPEPAQPTLTVPSAQPVSNRRGKPAIPAWEDVLLGVRSGGRR”: the “soluble on expression in E. coli” value is “soluble”.

In the case of “MGSDKIHHHHHHMTTPLLEINDLVVSYQTAKGLVHAVNNVSLEVHPGQITAIVGESGSGKSTTAQAVIGLLADNAEVDSGRISFNGRSLVGLNAREWKNVRGTKIGLIPQDPNNSLNPVKTIGASVGEGLAIHKRGTAAERKKKVIELLERVGIDNPEVRYDQYPHELSGGMKQRALIAAAIALEPELIIADEPTSALDVTVQKIILDLLEDMQRELGMGILFITHDLAVAGDRADRIVVMQKGEVRESGYAASVLTDPQHEYSKKLLADAPSLTIGEIPTRVPAVDPEVAQAKGPLLVVDKFRKEHQRGKEGAFVAANDISFEVLPGTTHAIVGESGSGKTTLGRAIAMFNTPTSGSISVSGKDITNLSKAQQRELRQQIQLVYQNPYSSLDPRQTIGSTIAEPLRNFTKVSKQEADEKVAHYLELVALDPALATRRPRELSGGQRQRVAIARAMILEPELVVFDEAVSALDVTVQAQILRLLDDLQRELGLTYVFISHDLAVVREISDTVSVMSRGNQVELGKTAEVFNNPQTDFTRRLIDAIPGSRYRGGELNLGL”, the “soluble on expression in E. coli” value is “not soluble”.

Take “MGSDKIHHHHHHMRNLDITTLRSFVAVADTGGVTRAASFLHLTQSAVSMQLKRLEEMLGVELLDRSGRNIGLTSAGEQLLGFARKMLSLNDEIITRLTDQAFEGEVTLGVPHDVVHPVIPMVMQRFNVQFPRVKVNLCTSNTRDLKMDFAQGRFDLIVTTETTASEGGEVIHQMPLRWIGALGGQTWRQRPLRIGFCRNCIFRGLATAALDDAGIPWEMAVDSESDRTVEATVSADLAVGVLLEGTQPAHQQVIDHGGSLPQLPVQHINLYGAERSRAQYVDHLASLIRQGFAGLSQPGLRAVGTEMVSAPVQLGVV”: the “soluble on expression in E. coli” value is “not soluble”.

On to “MKLGILHFTDSHIKSATDWILSEFSSLVASVKTIYEECDRIYIVFTGDVVYSGSEEEYILASKFLNSIRSLLKTLYKDKVYEQIIFTPGNHDCNFNMDRQARKML”, for which the “soluble on expression in E. coli” value is given as “not soluble”.

For the sequence “SEQHAQGADAVVDLNNELKTRREKLANLREQGIAFPNDFRRDHTSDQLHAEFDGKENEELEALNIEVAVAGRMMTRRIMGKASFVTLQDVGGRIQLYVARDDLPEGVYNEQFKKWDLGDILGAKGKLFKTKTGELSIHCTELRLLTKALRPLPDKFHGLQDQEARYRQRYLDLISNDESRNTFKVRSQILSGIRQFMVNRGFMEVETPMMQVIPGGAAARPFITHHNALDLDMYLRIAPELYLKRLVVGGFERVFEINRNFRNEGISVRHNPEFTMMELYMAYADYKDLIELTESLFRTLAQDILGKTEVTYGDVTLDFGKPFEKLTMREAIKKYRPETDMADLDNFDSAKAIAESIGIHVEKSWGLGRIVTEIFEEVAEAHLIQPTFITEYPAEVSPLARRNDVNPEITDRFEFFIGGREIGNGFSELNDAEDQAQRFLDQVAAKDAGDDEAMFYDEDYVTALEHGLPPTAGLGIGIDRMVMLFTNSHTIRDVILFPAMRPVK”, the “soluble on expression in E. coli” value is recorded as “soluble”.

Turning to “MGSDKIHHHHHHMSGAKVISVMNWKGGVGKTTMTHHLGTGLHMLTKEERLEYLGSEKMPRILFVDNDAQCNLSISCLHVEKYEDLVYKQNIPTIYDLYKLFICNESPVVDMHNYIIKNQVRMDNRRIFMGMDLLPAHQELVYLDMNIAMNSRASFQSGLISKEIYKYQYLNDILEPVCSDYDYIFIDCPPNLGYTTLNALYASEYCLIPTGLDHLSSYGIASLLKEIDRLNTEFATAVPDHPMIEVVGIVANNVEENREAPKRSQKLIRERLQDSYHELMFEPYLTRGDGIPNASEQGYPVYADRSANALKQGDLLLGILREFLDRI”, the “soluble on expression in E. coli” value was “not soluble”.

Consider “MAHHHHHHMISRINIDGSVNGRFCKKINNNIDCKLNFNTYAKNDTRNMYEMSLEVNKPLYTYNFKSIWQGAWIFNTSYTQLLTKKLQAGVDLTYIASNCASIGSFGLRYNHKNNVLTMQIVRQPNFKSPEFMLNQTHLYKIQYAKKISDRLSLGTELEITPQTKESAMRLGWDYSFRHAKVQGSIDTSGKISVFTQDYSGFGVSGYIDYLNNDYKFGFMMHISPSQEQPQTAA”, for which the “soluble on expression in E. coli” value was “not soluble”.

For “RTNQAGLELIGNAEGCRRDPYMCPAGVWTDGIGNTHGVTPGVRKTDQQIAADWEKNILIAERCINQHFRGKDMPDNAFSAMTSAAFNMGCNSLRTYYSKARGMRVETSIHKWAQKGEWVNMCNHLPDFVNSNGVPLRGLKIRREKERQLCLTGLVNEHHHHHH”, the “soluble on expression in E. coli” value is given as “soluble”.

For “QVQLQQSGAELVRPGVSVKISCKGSGYTFTDYGMHWVKQSHAKSLEWIGIISTYSGDASYNQKFKGKATMTVDKSSSTAYMELARLTSEDSAIYYCARSSTWYYFDYWGQGTTLTVSSAKTTAPSVYPLAPVCGDTTGSSVTLGCLVKGYFPEPVTLTWNSGSLSSGVHTFPAVLQSDLYTLSSSVTVTSSTWPSQSITCNVAHPASSTKVDKKIEPR”, the “soluble on expression in E. coli” value is “soluble”.

Turning to “MSLSRIIMLIPTGTSVGLTSVSLGVIRAMERKGVRLSVFKPIAQPRTGGDAPDQTTTIVRANSSTTTAAEPLKMSYVEGLLSSNQKDVLMEEIVANYHANTKDAEVVLVEGLVPTRKHQFAQSLNYEIAKTLNAEIVFVMSQGTDTPEQLKERIELTRNSFGGAKNTNITGVIVNKLNAPVDEQGRTRPDLSEIFDDSSKAKVNNVDPAKLQESSPLPVLGAVPWSFDLIATRAIDMARHLNATIINEGDINTRRVKSVTFCARSIPHMLEHFRAGSLLVTSADRPDVLVAACLAAMNGVEIGALLLTGGYEMDARISKLCERAFATGLPVFMVNTNTWQTSLSLQSFNLEVPVDDHERIEKVQEYVANYINADWIDSLTATSERSRRLSPPAFRYQLTELARKAGKRIVLPEGDEPRTVKAAAICAERGIATCVLLGNPAEINRVAASQGVELGAGIEIVDPEVVRESYVGRLVELRKNKGMTETVAREQLEDNVVLGTLMLEQDEVDGLVSGAVHTTANTIRPPLQLIKTAPGSSLVSSVFFMLLPEQVYVYGDCAINPDPTAEQLAEIAIQSADSAAAFGIEPRVAMLSYSTGTSGAGSDVEKVREATRLAQEKRPDLMIDGPLQYDAAVMADVAKSKAPNSPVAGRATVFIFPDLNTGNTTYKAVQRSADLISIGPMLQGMRKPVNDLSRGALVDDIVYTIALTAIQSAQQQEGHHHHHH”, the “soluble on expression in E. coli” value is given as “not soluble”.

On to “MSDLKYTVTADVLNVRSGAGTGHSVISKVKQGQVLQVIGQENGWFKVTVNGQTGYVSGDFVTTGGKTGTTVQQGTGTYTVNVSSLNVRTGPSTSHTVLGSVNKGKTVQVVSEVQDWFKINFNGGTGYVSKDFVTKGGSALEHHHHHH”, for which the “soluble on expression in E. coli” value is listed as “soluble”.

In the case of “MGHHHHHHGGHMSLVRITWCPGCGNFAILKAFERASRRVIEEGFDIAVSSGIGCHGKISDYLSLPGFHVIHGRVPPFLTGLKLANPNLVVVGFSGDGDGLNEGVEHLVHAARRNTDITIILHNNGVFGLTTGQVTATSPRGRKSRSTPRGNPEYPLNPCHLMLVSGATFVARVFAGEQERLSEVFYNAMKHKGFSFVEVMQPCVSFNNFWEMRKEIYWIERSSDLLEAMKNCSDAKACGIFYAEEKETYEDAVWKSTFEGGS”, the “soluble on expression in E. coli” value is on record as “soluble”.
